Test results as given in patent US20220187308A1 (published 2022).
Changes are numbered by the printed parent chain.

Key:
[1] = biological target: T1, GC-hIgA (human); assay: SPR (Biacore A100), antibody from culture supernatant on a protein A chip, GC-hIgA as analyte, 25 C, 1.2 mM CaCl2, pH 7.4 (step 22-3)
T1 construct: Recombinant human IgA used as the antigen in the Biacore A100 screen of step (22-3); also called recombinant human IgA GC-hIgA; human IgA
Method: The culture supernatant obtained by the above method was used to analyze GC-hIgA-binding ability using Biacore A100. Antibodies in the culture supernatant were immobilized onto Sensor chip CM5 (GE Healthcare Bio-Sciences Corp.) with protein A (Invitrogen Corp.) immobilized thereon in an appropriate amount by the amine coupling method. A buffer solution containing 20 mM ACES, 150 mM NaCl, 0.05% (w/v) Tween 20, and 1.2 mM CaCl₂) (pH 7.4) were used as a running buffer. GC-hIgA was also diluted with this buffer. Assay was all carried out at 25° C.

[2] = biological target: T2, biotinylated human IgA-Fc (human, UniProt P01876 123-333, biotin added at the C-terminal Avitag sequence by biotin ligase (BirA)); assay: phage ELISA (Fab displayed on phage) on biotin-labeled IgA-Fc, 1.2 mM CaCl2 against 1 mM EDTA (step 22-4)
T2 construct: also called biotin-labeled hIgA-Fc
T2 sequence (P01876 other isoform, or with tags, fused parts or gaps limits assumed): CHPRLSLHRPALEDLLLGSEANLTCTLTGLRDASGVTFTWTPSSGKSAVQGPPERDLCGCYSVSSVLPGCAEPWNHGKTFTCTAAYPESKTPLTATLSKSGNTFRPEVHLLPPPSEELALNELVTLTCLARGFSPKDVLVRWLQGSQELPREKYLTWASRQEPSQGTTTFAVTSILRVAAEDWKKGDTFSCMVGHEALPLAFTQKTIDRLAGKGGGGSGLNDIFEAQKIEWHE
Method: Each well of the plate was washed with PBST to remove unbound antigens. […] The plate was left standing at 37° C. for 30 minutes for incubation. […] The plate was incubated for 1 hour. […] The chromogenic reaction of the solution in each well was terminated by the addition of sulfuric acid. Then, the developed color was assayed on the basis of absorbance at 450 nm.

[3] = biological target: T2, biotinylated human IgA-Fc; assay: phage ELISA (Fab displayed on phage) on biotin-labeled IgA-Fc, 1.2 mM CaCl2 against 1 mM EDTA (step 22-6)
[4] = biological target: T3, biotin-labeled recombinant human glypican 3 (human, UniProt P51654 25-563, biotin-labeled using EZ-Link NHS-PEG4-Biotin); assay: phage ELISA (Fab displayed on phage) on biotin-labeled GPC3, 1.2 mM CaCl2 against 1 mM EDTA
T3 construct: also called GPC3; biotin-labeled GPC3
T3 sequence (P51654 other isoform, or with tags, fused parts or gaps limits assumed): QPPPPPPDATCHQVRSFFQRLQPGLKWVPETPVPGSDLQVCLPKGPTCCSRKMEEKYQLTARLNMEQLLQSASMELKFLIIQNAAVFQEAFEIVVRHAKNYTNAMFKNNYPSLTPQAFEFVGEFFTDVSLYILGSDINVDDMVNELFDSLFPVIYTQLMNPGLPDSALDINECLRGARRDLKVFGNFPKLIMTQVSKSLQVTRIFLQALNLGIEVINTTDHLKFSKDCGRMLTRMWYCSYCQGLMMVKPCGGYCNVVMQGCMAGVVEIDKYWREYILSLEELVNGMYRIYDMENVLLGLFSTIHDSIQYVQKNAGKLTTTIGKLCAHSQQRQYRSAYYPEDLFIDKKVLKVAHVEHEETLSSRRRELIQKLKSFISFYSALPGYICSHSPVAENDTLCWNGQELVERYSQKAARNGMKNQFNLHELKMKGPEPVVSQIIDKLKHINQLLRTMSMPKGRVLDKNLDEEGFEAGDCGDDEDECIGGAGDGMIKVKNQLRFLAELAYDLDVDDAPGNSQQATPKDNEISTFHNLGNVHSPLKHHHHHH
Method: The plate was left standing at 37° C. for 30 minutes for incubation. […] The plate was incubated for 1 hour. […] The chromogenic reaction of the solution in each well was terminated by the addition of sulfuric acid. Then, the developed color was assayed on the basis of absorbance at 450 nm.

T1 sequence (light, as listed by the source): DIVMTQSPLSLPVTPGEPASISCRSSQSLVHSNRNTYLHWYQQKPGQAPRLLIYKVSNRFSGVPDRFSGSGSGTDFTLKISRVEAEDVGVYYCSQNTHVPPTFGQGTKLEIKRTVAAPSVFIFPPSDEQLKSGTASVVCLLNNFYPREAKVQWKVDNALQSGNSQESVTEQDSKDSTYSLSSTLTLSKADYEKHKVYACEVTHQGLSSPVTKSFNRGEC

B1: GA1-IgG1 (antibody, V domains shown)
VH: EVQLVQSGAEVKKPGSSVKVSCKASGGTFSSYAISWVRQAPGQGLEWMGGIIPIFGTANYAQKFQGRVTITADESTSTAYMELSSLRSEDTAVYYCARVAPGNWGSPYFDYWGQGTLVTVSS
VL: DIQMTQSPSSLSASVGDRVTITCRASQSIEDDLAWYQQKPGKAPKLLIYEASSLQSGVPSRFSGSGSGTDFTLTISSLQPEDFATYYCQQRDSSPLTFGQGTKVEIKR
notes: From the Ca library; obtained in step (22-3)
binding result [1]: binds

B2: GA2-IgG1 (antibody, V domains shown)
VH: QVQLVQSGAEVKKPGSSVKVSCKASGGTFSSYAISWVRQAPGQGLEWMGGIIPIFGTANYAQKFQGRVTITADESTSTAYMELSSLRSEDTAVYYCARPRWETAISSDAFDIWGQGTMVTVSS
VL: B1 VL with E30S, A34N, S53N, R91H, D92S
notes: From the Ca library; obtained in step (22-4)
binding result [2]: binds

B3: GA3-IgG1 (antibody, V domains shown)
VH: QVQLVQSGAEVKKPGSSVKVSCKASGGTFSSYAISWVRQAPGQGLEWMGGIIPIFGTANYAQKFQGRVTITADESTSTAYMELSSLRSEDTAVYYCARGNGDYLEYFQHWGQGTLVTVSS
VL: B1 VL with E30S, S53N
notes: From the Ca library; obtained in step (22-6)
binding result [3]: binds

B4: CSCM-01_023 (antibody, human IgG1, kappa, V domains shown)
VH: QVQLVQSGAEVKKPGASVKVSCKASGYTFTSYGISWVRQAPGQGLEWMGWISAYNGNTNYAQKLQGRVTMTTDTSTSTAYMELRSLRSDDTAVYYCARDSPLLWFGEPFFDYWGQGTLVTVSS
VL: B1 VL with E50H, S53T, R91S, S94Y
notes: Purified IgG in the ELISA of step (24-5)
binding result [4]: binds
